Measurements from patent publication US20260202410A1 (NORDIC BIOSCIENCE A S, published 2026).

B1: monoclonal antibody clone NBH313 #46 9H11-1D9-2B6 (antibody, V domains shown)
VH: EVQLVESGGGLVQPKGSLKLSCAASGFTFNIYTMNWVRQAPGKGLEWVARIRSKSENYATYYADSVKDRFTISRDDSQSILYLQMNNLKTEDTAIYYCVRQGIYYDYYGAMDYWGQGTSVTVSS
VL: NIMMTQSPSSLAVSAGEKATMSCKSSQSLLYSSNQMNYLAWYQQKPGQSPKLLIYWASTRESDVPDRFTGSGSGTDFTLTISSVQTEDLAVYYCHQYFSSRTFGGGTKLEIKR
notes: Mouse (Balb/C) hybridoma monoclonal antibody; also called PRO-C9 antibody; the mAb
B2: standard peptide QRAFNKGPDP (PRO-C9 target sequence, C-terminus of type IX collagen alpha-1 chain) (peptide)
peptide: QRAFNKGPDP
notes: Synthetic peptide from Genscript with a free C-terminus; also called selection peptide

Experiments:
[1] = target: B2; assay: ELISA screening of hybridoma clones
Procedure: An indirect ELISA performed on streptavidin-coated plates was used for the screening of supernatant reactivity. Biotin-[…] was used as screening peptide, while the standard peptide […] was used to further test the specificity of the clones. Supernatant was collected from the hybridoma cells and purified using HiTrap affinity columns (GEHealthcare Life Science, Little Chalfront, Buckinghamshire, UK) according to manufacturer instructions and antibody isotype was determined using Rapid ELISA Mouse monoclonal antibody Isotyping Kit (Invitrogen, Carlsbad, CA, USA) following the manufacturer's protocol.

[2] = target: T1, elongated peptide QRAFNKGPDPG; assay: competitive CLIA, signal inhibition by two-fold diluted peptide
T1 construct: also called elongated selection peptide
T1 peptide: QRAFNKGPDPG
Procedure: (§1) The development of the competitive chemiluminescence immunoassay (CLIA) included several preliminary optimizing experiments where reagents, concentrations, incubation-time and -temperature were analysed by several tests. The PRO-C9 competitive ELISA procedure was as follows: A 96-well streptavidin-coated white microplate (Greiner Bio-One, Kremsminster, Austria) was coated with 5 ng/mL biotinylated synthetic peptide (Biotin-[…] SEQ ID No. 18) dissolved in assay buffer (10 mM phosphate buffered saline (PBS), 1% bovine serum albumin, 0.1% Tween-20, 0.36% Bronidox, 4 g/L NaCl, adjusted to pH 7.4 at 20° C.) and incubated for 30 min at 20° C. with constant shaking (300 rpm) in darkness.
(§2) Next, 20 μL/well of standard peptide (100 ng/mL) and samples were added to the appropriate wells, followed by the addition of 100 μL/well of HRP-labelled antibody diluted in assay buffer to the concertation of 100 ng/mL and incubated for 20 h at 4° C. with constant shaking (300 rpm) in darkness. After each incubation step, wells were washed with standard washing buffer (20 mM Tris, 50 mM NaCl, pH 7.2). […] The relative light units were measured at all wavelengths within 5 min on a microplate luminometer reader (SpectraMax M5, Molecular Devices, CA, USA).
(§3) Two-fold dilutions of four human serum samples were used to assess linearity. Linearity was calculated as a percentage of recovery of the undiluted sample. […]

[3] = target: T2, truncated peptide QRAFNKGPD; assay: as above
T2 construct: also called truncated selection peptide
T2 peptide: QRAFNKGPD
Procedure: as §1, §2, §3

[4] = target: T3, non-sense coating and standard peptide DQAAGGLRQH; assay: competitive CLIA, non-sense peptide tested as free standard and as coater
T3 construct: also called non-sense peptide; non-sense standard peptide
T3 peptide: DQAAGGLRQH
Procedure: as §1, §2, §3

[5] = target: B1; assay: competitive CLIA: free standard peptide against coated Biotin-… for HRP-labelled antibody
Procedure: Next, 20 μL/well of standard peptide (100 ng/mL) and samples were added to the appropriate wells, followed by the addition of 100 μL/well of HRP-labelled antibody diluted in assay buffer to the concertation of 100 ng/mL and incubated for 20 h at 4° C. with constant shaking (300 rpm) in darkness. After each incubation step, wells were washed with standard washing buffer (20 mM Tris, 50 mM NaCl, pH 7.2). The chemiluminescence substrate (Roche, BM Chemiluminescence ELISA substrate (POD), Basel, Switzerland) working solutions were mixed 15 min before use and 100 μL/well were added to plate and incubated for 3 min at 20° C. with constant shaking (300 rpm) in darkness. The relative light units were measured at all wavelengths within 5 min on a microplate luminometer reader (SpectraMax M5, Molecular Devices, CA, USA).
Accuracy of the assay was measured in healthy human serum samples spiked with standard peptide and a serum sample with a known high PRO-C9 concentration and calculated as the percentage recovery of the measured value and the expected concentration of the peptide or the serum sample with high PRO-C9 plus the concentration of the analyte in serum. […] Recovery percentage was calculated with the normal serum sample as reference. […] The interference was calculated as the percentage recovery of the analyte in non-spiked serum. […]

Which results are given for B1?
binding result [1]: binds; binding result [2]: no binding; binding result [3]: no binding; binding result [4]: no binding

Which IC50 [5] does the source give for B2 here?
The IC50 was 3.62 ng/mL.
